Assays:
GFP-14-3-3β = GFP-14-3-3β co-IP with LC-MS/MS, untreated GFP-14-3-3β versus GFP control (14-3-3 interactome); format: binding, human
[1] = tested on: GFP-14-3-3β and its binding proteins; test: GFP-14-3-3β co-IP with LC-MS/MS label-free quantification, untreated versus PP1c-treated; design: species or system human
[2] = pairwise comparison untreated GFP-14-3-3β vs GFP, student's t-test, 3 replicates each, LC-MS/MS label-free quantification
[3] = pairwise comparison PP1 vs untreated, student's t-test, 3 replicates each, LC-MS/MS label-free quantification
[4] = untreated vs GFP, LFQ intensities, replicates 1-3
[5] = PP1 vs untreated, LFQ intensities, replicates 1-3

Row | Molecule | Difference (log2), PP1 vs untreated [1, 3] | Difference (log2), PP1 vs untreated [1, 5] | Difference (log2), untreated vs GFP (GFP-14-3-3β; [2]) | Difference (log2), untreated vs GFP (GFP-14-3-3β; [4]) | also measured
1 | BAIAP2 (protein, UniProt Q9UQB8 1-552, looked up) BAR/IMD domain-containing …: MSLSRSEEMHRLTENVYKTIMEQFNPSLRNFIAMGKNYEKALAGVTYAAKGYFDALVKMGELASESQGSKELGDVLFQMAEVHRQIQNQLEEMLKSFHNELLTQLEQKVELDSRYLSAALKKYQTEQRSKGDALDKCQAELKKLRKKSQGSKNPQKYSDKELQYIDAISNKQGELENYVSDGYKTALTEERRRFCFLVEKQCAVAKNSAAYHSKGKELLAQKLPLWQQACADPSKIPERAVQLMQQVASNGATLPSALSASKSNLVISDPIPGAKPLPVPPELAPFVGRMSAQESTPIMNGVTGPDGEDYSPWADRKAAQPKSLSPPQSQSKLSDSYSNTLPVRKSVTPKNSYATTENKTLPRSSSMAAGLERNGRMRVKAIFSHAAGDNSTLLSFKEGDLITLLVPEARDGWHYGESEKTKMRGWFPFSYTRVLDSDGSDRLHMSLQQGKSSSTGNLLDKDDLAIPPPDYGAASRAFPAQTASGFKQRPYSVAVPAFSQGLDDYGARSMSRNPFAHVQLKPTVTNDRCDLSAQGPEGREHGDGSARTLAGR |  | -1.977 log2 |  | 2.991 log2 | 
2 | MPRIP (protein, UniProt Q6WCQ1 2-1025, looked up) Myosin phosphatase …: SAAKENPCRKFQANIFNKSKCQNCFKPRESHLLNDEDLTQAKPIYGGWLLLAPDGTDFDNPVHRSRKWQRRFFILYEHGLLRYALDEMPTTLPQGTINMNQCTDVVDGEGRTGQKFSLCILTPEKEHFIRAETKEIVSGWLEMLMVYPRTNKQNQKKKRKVEPPTPQEPGPAKVAVTSSSSSSSSSSSIPSAEKVPTTKSTLWQEEMRTKDQPDGSSLSPAQSPSQSQPPAASSLREPGLESKEEESAMSSDRMDCGRKVRVESGYFSLEKTKQDLKAEEQQLPPPLSPPSPSTPNHRRSQVIEKFEALDIEKAEHMETNAVGPSPSSDTRQGRSEKRAFPRKRDFTNEAPPAPLPDASASPLSPHRRAKSLDRRSTEPSVTPDLLNFKKGWLTKQYEDGQWKKHWFVLADQSLRYYRDSVAEEAADLDGEIDLSACYDVTEYPVQRNYGFQIHTKEGEFTLSAMTSGIRRNWIQTIMKHVHPTTAPDVTSSLPEEKNKSSCSFETCPRPTEKQEAELGEPDPEQKRSRARERRREGRSKTFDWAEFRPIQQALAQERVGGVGPADTHEPLRPEAEPGELERERARRREERRKRFGMLDATDGPGTEDAALRMEVDRSPGLPMSDLKTHNVHVEIEQRWHQVETTPLREEKQVPIAPVHLSSEDGGDRLSTHELTSLLEKELEQSQKEASDLLEQNRLLQDQLRVALGREQSAREGYVLQATCERGFAAMEETHQKKIEDLQRQHQRELEKLREEKDRLLAEETAATISAIEAMKNAHREEMERELEKSQRSQISSVNSDVEALRRQYLEELQSVQRELEVLSEQYSQKCLENAHLAQALEAERQALRQCQRENQELNAHNQELNNRLAAEITRLRTLLTGDGGGEATGSPLAQGKDAYELEVLLRVKESEIQYLKQEISSLKDELQTALRDKKYASDKYKDIYTELSIAKAKADCDISRLKEQLKAATEALGEKSPDSATVSGYDIMKSKSNPDFLKKDRSCVTRQLRNIRSKSVIEQVSWDT |  | -1.951 log2 |  | 1.085 log2 | 
3 | SND1 (protein, UniProt Q7KZF4 2-910, looked up) Staphylococcal nuclease …: ASSAQSGGSSGGPAVPTVQRGIIKMVLSGCAIIVRGQPRGGPPPERQINLSNIRAGNLARRAAATQPDAKDTPDEPWAFPAREFLRKKLIGKEVCFTIENKTPQGREYGMIYLGKDTNGENIAESLVAEGLATRREGMRANNPEQNRLSECEEQAKAAKKGMWSEGNGSHTIRDLKYTIENPRHFVDSHHQKPVNAIIEHVRDGSVVRALLLPDYYLVTVMLSGIKCPTFRREADGSETPEPFAAEAKFFTESRLLQRDVQIILESCHNQNILGTILHPNGNITELLLKEGFARCVDWSIAVYTRGAEKLRAAERFAKERRLRIWRDYVAPTANLDQKDKQFVAKVMQVLNADAIVVKLNSGDYKTIHLSSIRPPRLEGENTQDKNKKLRPLYDIPYMFEAREFLRKKLIGKKVNVTVDYIRPASPATETVPAFSERTCATVTIGGINIAEALVSKGLATVIRYRQDDDQRSSHYDELLAAEARAIKNGKGLHSKKEVPIHRVADISGDTQKAKQFLPFLQRAGRSEAVVEYVFSGSRLKLYLPKETCLITFLLAGIECPRGARNLPGLVQEGEPFSEEATLFTKELVLQREVEVEVESMDKAGNFIGWLHIDGANLSVLLVEHALSKVHFTAERSSYYKSLLSAEEAAKQKKEKVWAHYEEQPVEEVMPVLEEKERSASYKPVFVTEITDDLHFYVQDVETGTQLEKLMENMRNDIASHPPVEGSYAPRRGEFCIAKFVDGEWYRARVEKVESPAKIHVFYIDYGNREVLPSTRLGTLSPAFSTRVLPAQATEYAFAFIQVPQDDDARTDAVDSVVRDIQNTQCLLNVEHLSAGCPHVTLQFADSKGDVGLGLVKEGLVMVEVRKEKQFQKVITEYLNAQESAKSARLNLWRYGDFRADDADEFGYSR |  |  |  |  | Difference (log2), untreated vs GFP (GFP-14-3-3β; log2 difference, pairwise comparison untreated vs GFP, label-free quantification, 3 replicates each): -0.5008; Difference (log2), PP1 vs untreated ([1]; log2 difference, pairwise comparison PP1 vs untreated, label-free quantification, 3 replicates each): 1.5668
4 | CYFIP1 (protein, UniProt Q7L576 1-1253, looked up) Cytoplasmic FMR1-interacting …: MAAQVTLEDALSNVDLLEELPLPDQQPCIEPPPSSLLYQPNFNTNFEDRNAFVTGIARYIEQATVHSSMNEMLEEGQEYAVMLYTWRSCSRAIPQVKCNEQPNRVEIYEKTVEVLEPEVTKLMNFMYFQRNAIERFCGEVRRLCHAERRKDFVSEAYLITLGKFINMFAVLDELKNMKCSVKNDHSAYKRAAQFLRKMADPQSIQESQNLSMFLANHNKITQSLQQQLEVISGYEELLADIVNLCVDYYENRMYLTPSEKHMLLKVMGFGLYLMDGSVSNIYKLDAKKRINLSKIDKYFKQLQVVPLFGDMQIELARYIKTSAHYEENKSRWTCTSSGSSPQYNICEQMIQIREDHMRFISELARYSNSEVVTGSGRQEAQKTDAEYRKLFDLALQGLQLLSQWSAHVMEVYSWKLVHPTDKYSNKDCPDSAEEYERATRYNYTSEEKFALVEVIAMIKGLQVLMGRMESVFNHAIRHTVYAALQDFSQVTLREPLRQAIKKKKNVIQSVLQAIRKTVCDWETGHEPFNDPALRGEKDPKSGFDIKVPRRAVGPSSTQLYMVRTMLESLIADKSGSKKTLRSSLEGPTILDIEKFHRESFFYTHLINFSETLQQCCDLSQLWFREFFLELTMGRRIQFPIEMSMPWILTDHILETKEASMMEYVLYSLDLYNDSAHYALTRFNKQFLYDEIEAEVNLCFDQFVYKLADQIFAYYKVMAGSLLLDKRLRSECKNQGATIHLPPSNRYETLLKQRHVQLLGRSIDLNRLITQRVSAAMYKSLELAIGRFESEDLTSIVELDGLLEINRMTHKLLSRYLTLDGFDAMFREANHNVSAPYGRITLHVFWELNYDFLPNYCYNGSTNRFVRTVLPFSQEFQRDKQPNAQPQYLHGSKALNLAYSSIYGSYRNFVGPPHFQVICRLLGYQGIAVVMEELLKVVKSLLQGTILQYVKTLMEVMPKICRLPRHEYGSPGILEFFHHQLKDIVEYAELKTVCFQNLREVGNAILFCLLIEQSLSLEEVCDLLHAAPFQNILPRVHVKEGERLDAKMKRLESKYAPLHLVPLIERLGTPQQIAIAREGDLLTKERLCCGLSMFEVILTRIRSFLDDPIWRGPLPSNGVMHVDECVEFHRLWSAMQFVYCIPVGTHEFTVEQCFGDGLHWAGCMIIVLLGQQRRFAVLDFCYHLLKVQKHDGKDEIIKNVPLKKMVERIRKFQILNDEIITILDKYLKSGDGEGTPVEHVRCFQPPIHQSLASS | -2.17 log2 |  | 3.924 log2 |  | 

Continued, in another order:

Row | Difference (log2), PP1 vs untreated [1, 3] | Difference (log2), PP1 vs untreated [1, 5] | Molecule | Difference (log2), untreated vs GFP (GFP-14-3-3β; [2]) | Difference (log2), untreated vs GFP (GFP-14-3-3β; [4]) | also measured
5 | -2.05 log2 |  | SORBS2 (protein, UniProt O94875 1-1100, looked up) Sorbin and SH3 …: MSYYQRPFSPSAYSLPASLNSSIVMQHGTSLDSTDTYPQHAQSLDGTTSSSIPLYRSSEEEKRVTVIKAPHYPGIGPVDESGIPTAIRTTVDRPKDWYKTMFKQIHMVHKPDDDTDMYNTPYTYNAGLYNPPYSAQSHPAAKTQTYRPLSKSHSDNSPNAFKDASSPVPPPHVPPPVPPLRPRDRSSTEKHDWDPPDRKVDTRKFRSEPRSIFEYEPGKSSILQHERPASLYQSSIDRSLERPMSSASMASDFRKRRKSEPAVGPPRGLGDQSASRTSPGRVDLPGSSTTLTKSFTSSSPSSPSRAKGGDDSKICPSLCSYSGLNGNPSSELDYCSTYRQHLDVPRDSPRAISFKNGWQMARQNAEIWSSTEETVSPKIKSRSCDDLLNDDCDSFPDPKVKSESMGSLLCEEDSKESCPMAWGSPYVPEVRSNGRSRIRHRSARNAPGFLKMYKKMHRINRKDLMNSEVICSVKSRILQYESEQQHKDLLRAWSQCSTEEVPRDMVPTRISEFEKLIQKSKSMPNLGDDMLSPVTLEPPQNGLCPKRRFSIEYLLEEENQSGPPARGRRGCQSNALVPIHIEVTSDEQPRAHVEFSDSDQDGVVSDHSDYIHLEGSSFCSESDFDHFSFTSSESFYGSSHHHHHHHHHHHRHLISSCKGRCPASYTRFTTMLKHERARHENTEEPRRQEMDPGLSKLAFLVSPVPFRRKKNSAPKKQTEKAKCKASVFEALDSALKDICDQIKAEKKRGSLPDNSILHRLISELLPDVPERNSSLRALRRSPLHQPLHPLPPDGAIHCPPYQNDCGRMPRSASFQDVDTANSSCHHQDRGGALQDRESPRSYSSTLTDMGRSAPRERRGTPEKEKLPAKAVYDFKAQTSKELSFKKGDTVYILRKIDQNWYEGEHHGRVGIFPISYVEKLTPPEKAQPARPPPPAQPGEIGEAIAKYNFNADTNVELSLRKGDRVILLKRVDQNWYEGKIPGTNRQGIFPVSYVEVVKKNTKGAEDYPDPPIPHSYSSDRIHSLSSNKPQRPVFTHENIQGGGEPFQALYNYTPRNEDELELRESDVIDVMEKCDDGWFVGTSRRTKFFGTFPGNYVKRL | 3.7091 log2 |  | 
6 |  | -2.012 log2 | ZYX (protein, UniProt Q15942 2-572, looked up) Zyxin: AAPRPSPAISVSVSAPAFYAPQKKFGPVVAPKPKVNPFRPGDSEPPPAPGAQRAQMGRVGEIPPPPPEDFPLPPPPLAGDGDDAEGALGGAFPPPPPPIEESFPPAPLEEEIFPSPPPPPEEEGGPEAPIPPPPQPREKVSSIDLEIDSLSSLLDDMTKNDPFKARVSSGYVPPPVATPFSSKSSTKPAAGGTAPLPPWKSPSSSQPLPQVPAPAQSQTQFHVQPQPQPKPQVQLHVQSQTQPVSLANTQPRGPPASSPAPAPKFSPVTPKFTPVASKFSPGAPGGSGSQPNQKLGHPEALSAGTGSPQPPSFTYAQQREKPRVQEKQHPVPPPAQNQNQVRSPGAPGPLTLKEVEELEQLTQQLMQDMEHPQRQNVAVNELCGRCHQPLARAQPAVRALGQLFHIACFTCHQCAQQLQGQQFYSLEGAPYCEGCYTDTLEKCNTCGEPITDRMLRATGKAYHPHCFTCVVCARPLEGTSFIVDQANRPHCVPDYHKQYAPRCSVCSEPIMPEPGRDETVRVVALDKNFHMKCYKCEDCGKPLSIEADDNGCFPLDGHVLCRKCHTARAQT |  | -0.162 log2 | 
